Residue numbers refer to the chain shown, from its start.
Tests used:
[1] = tested on: GRP78 promoter; assay: Co-transfection of pcDNA3.1 effector plasmid (full-length ATF6 or CREB-RP) with GRP78 promoter luciferase reporter in HeLa cells; assay type: cell-based, human
Protocol: 100 ng of an effector plasmid carrying a full-length ATF6 cDNA or plasmid vector alone was cotransfected into HeLa cells with 1 μg of a reporter plasmid containing luciferase gene fused with intact or mutant GRP promoters. The mutant promoter constructs used correspond to those of FIG. 6. Closed bars and open bars indicated cells treated with or without 2 μg/ml tunicamycin (in the figure, referred to as “TM”) for 16 hours, respectively. Experiments were repeated four times.
An effector plasmid carrying a full-length CREB-RP gene was cotransfected into HeLa cells harboring a reporter plasmid in the same manner as in FIG. 14. Experiments were repeated four times. In the figure, TM indicates tunicamycin.
An entire cDNA was inserted into the HindIII-XhoI sites or BamHI-EcoRI sites immediately downstream of the CMV promoter of pcDNA3.1(+) vector (manufactured by Invitrogen) to construct an effector plasmid for expressing ATF6 or CREB-RP, respectively.
In order to examine whether or not ATF6 is involved in the transcriptional regulation of the GRP gene in mammalian cells, HeLa cells were co-transfected with an effector plasmid carrying a full-length ATF6 cDNA and a reporter plasmid resulting from ligation of the firefly luciferase gene to downstream of the intact GRP promoter or a mutant GRP promoter, and GRP promoter activity was evaluated from the luciferase activity.
Therefore, with these findings in mind, a test was carried out to determine whether or not CREB-RP overexpression affects the activity of the GRP promoter.

[2] = tested on: human GRP78 promoter; assay: Overexpression of pCGN-ATF6 deletion mutants with reporter pGL3-G78(-132) in HeLa cells, ERSE-mediated transcription; assay type: cell-based; conditions: for transcription of the luciferase gene from the GRP78 promoter having ERSE: absence of endoplasmic reticulum stress (without TM)
Protocol: HeLa cells in a 24-well plate were transiently transfected with a reporter plasmid pGL-G78(−132) capable of expressing firefly luciferase gene under the control of human GRP78 promoter, together with pCGN vector alone (Vec) or each of ATF6 expression plasmids. Transfected cells were treated with (closed bars) or without (open bars) 2 μg/ml tunicamycin (TM) for 16 hours prior to measuring luciferase activity. The relative activities are indicated as the mean±standard deviations (bars) from four independent experiments (triplicate determinations).
Using HeLa cells co-transfected with the reporter plasmid pGL3-G78(−132) [see Example 1 (FIG. 6, line 2)] resulting from ligation of the firefly luciferase gene to downstream of the human GRP78 promoter ([−132 to +7], numbered on the basis of the translation initiation point taken as +1) and the expression plasmid for the ATF6 C-terminal deletion mutant of Example 10, the effects of each of the overexpressed C-terminal deletion mutants of ATF6 on ERSE-mediated transcriptional activation were evaluated.
Next, in the same manner as in Example 13, the effect of the overexpression of each ATF6 transcription-activating domain deletion mutant on ERSE-mediated transcriptional activation was evaluated by co-transfection with the reporter plasmid pGL3-G78(−132).

[3] = presence of TM (2 μg/ml, 16 hours)

B1: ATF6: full-length ATF6, 670 amino acids (SEQ ID NO: 32), bZIP transcription factor expressed from pcDNA3.1(+) effector plasmid (protein, listed as Homo sapiens)
chain: MGEPAGVAGTMESPFSPGLFHRLDEDWDSALFAELGYFTDTDELQLEAANETYENNFDNLDFDLDLMPWESDIWDINNQICTVKDIKAEPQPLSPASSSYSVSSPRSVDSYSSTQHVPEELDLSSSSQMSPLSLYGENSNSLSSPEPLKEDKPVTGSRNKTENGLTPKKKIQVNSKPSIQPKPLLLPAAPKTQTNSSVPAKTIIIQTVPTLMPLAKQQPIISLQPAPTKGQTVLLSQPTVVQLQAPGVLPSAQPVLAVAGGVTQLPNHVVNVVPAPSANSPVNGKLSVTKPVLQSTMRNVGSDIAVLRRQQRMIKNRESACQSRKKKKEYMLGLEARLKAALSENEQLKKENGTLKRQLDEVVSENQRLKVPSPKRRVVCVMIVLAFIILNYGPMSMLEQDSRRMNPSVSPANQRRHLLGFSAKEAQDTSDGIIQKNSYRYDHSVSNDKALMVLTEEPLLYIPPPPCQPLINTTESLRLNHELRGWVHRHEVERTKSRRMTNNQQKTRILQGALEQGSNSQLMAVQYTETTSSISRNSGSELQVYYASPRSYQDFFEAIRRRGDTFYVVSFRRDHLLLPATTHNKTTRPKMSIVLPAININENVINGQDYEVMMQIDCQVMDTRILHIKSSSVPPYLRDQQRNQTNTFFGSPPAATEATHVVSTIPESLQ
[1]; absence of TM, 100 ng effector plasmid
  increase of luciferase expression from GRP78 promoter having intact ERSE sequences over control vector: 5 fold
[1]
  effect on expression from mutant GRP78 promoter lacking all three ERSE sequences: not affected
[1]; [3]
  effect on reporter expression from intact GRP78 promoter: further increased

B2: CREB-RP: full-length CREB-RP (SEQ ID NO: 34) expressed from pcDNA3.1(+) effector plasmid (protein, listed as Homo sapiens)
chain: MAELMLLSEIADPTRFFTDNLLSPEDWDSTLYSGLDEVAEEQTQLFRCPEQDVPFDGSSLDVGMDVSPSEPPWELLPIFPDLQVKSEPSSPCSSSSLSSESSRLSTEPSSEALGVGEVLHVKTESLAPPLCLLGDDPTSSFETVQINVIPTSDDSSDVQTKIEPVSPCSSVNSEASLLSADSSSQAFIGEEVLEVKTESLSPSGCLLWDVPAPSLGAVQISMGPSLDGSSGKALPTRKPPLQPKPVVLTTVPMPSRAVPPSTTVLLQSLVQPPPVSPVVLIQGAIRVQPEGPAPSLPRPERKSIVPAPMPGNSCPPEVDAKLLKRQQRMIKNRESACQSRRKKKEYLQGLEARLQAVLADNQQLRRENAALRRRLEALLAENSELKLGSGNRKVVCIMVFLLFIAFNFGPVSISEPPSAPISPRMNKGEPQPRRHLLGFSEQEPVQGVEPLQGSSQGPKEPQPSPTDQPSFSNLTAFPGGAKELLLRDLDQLFLSSDCRHFNRTESLRLADELSGWVQRHQRGRRKIPQRAQERQKSQPRKKSPPVKAVPIQPPGPPERDSVGQLQLYRHPDRSQPAFLDAIDRREDTFYVVSFRRGHLLLPAISHNKTSRPKMSLVMPAMAPNETLSGRGAPGDYEEMMQIECEVMDTRVIHIKTSTVPPSLRKQPSPTPGNATGGPLPVSAASQAHQASHQPLYLNHP
[1]; absence of TM
  effect on reporter expression from intact GRP78 promoter: hardly affected
[1]
  effect on expression from mutant GRP78 promoter lacking all three ERSE sequences: did not affect
[1]; [3]
  effect on reporter expression from intact GRP78 promoter: markedly suppressed

B3: ATF(670): full-length ATF6 with HA epitope at N-terminus, expressed from pCGN-ATF6(670) (protein, UniProt P18850 1-670, looked up)
chain: B1 chain with P145A, S157P
modifications: full-length N-terminal HA tag
[2]
  transcription of the luciferase gene from the GRP78 promoter having ERSE: constitutively activated

B4: ATF6(402): HA-tagged ATF6 amino acids 1st to 402nd; retains the transmembrane domain (protein, UniProt P18850 1-402, looked up, fragment)
chain: MGEPAGVAGTMESPFSPGLFHRLDEDWDSALFAELGYFTDTDELQLEAANETYENNFDNLDFDLDLMPWESDIWDINNQICTVKDIKAEPQPLSPASSSYSVSSPRSVDSYSSTQHVPEELDLSSSSQMSPLSLYGENSNSLSSAEPLKEDKPVTGPRNKTENGLTPKKKIQVNSKPSIQPKPLLLPAAPKTQTNSSVPAKTIIIQTVPTLMPLAKQQPIISLQPAPTKGQTVLLSQPTVVQLQAPGVLPSAQPVLAVAGGVTQLPNHVVNVVPAPSANSPVNGKLSVTKPVLQSTMRNVGSDIAVLRRQQRMIKNRESACQSRKKKKEYMLGLEARLKAALSENEQLKKENGTLKRQLDEVVSENQRLKVPSPKRRVVCVMIVLAFIILNYGPMSMLEQDS
modifications: HA tag
notes: HA-tagged ATF6 amino acids 1st to 402nd; retains the transmembrane domain
[2]
  transcription of the luciferase gene from the GRP78 promoter having ERSE: constitutively enhanced

B5: ATF6(330): HA-tagged ATF6 amino acids 1st to 330th; lacks the leucine zipper region (protein, UniProt P18850 1-330, looked up, fragment)
chain: MGEPAGVAGTMESPFSPGLFHRLDEDWDSALFAELGYFTDTDELQLEAANETYENNFDNLDFDLDLMPWESDIWDINNQICTVKDIKAEPQPLSPASSSYSVSSPRSVDSYSSTQHVPEELDLSSSSQMSPLSLYGENSNSLSSAEPLKEDKPVTGPRNKTENGLTPKKKIQVNSKPSIQPKPLLLPAAPKTQTNSSVPAKTIIIQTVPTLMPLAKQQPIISLQPAPTKGQTVLLSQPTVVQLQAPGVLPSAQPVLAVAGGVTQLPNHVVNVVPAPSANSPVNGKLSVTKPVLQSTMRNVGSDIAVLRRQQRMIKNRESACQSRKKKKEY
modifications: HA tag
notes: HA-tagged ATF6 amino acids 1st to 330th; lacks the leucine zipper region
[2]; nearly the same expression level
  activity compared with ATF6(373) or ATF(366): markedly lower activity

B6: ATF6(151-373): ATF6 amino acids 151st to 373rd, transcription-activating domain deletion mutant (protein, UniProt P18850 151-373, looked up, fragment)
chain: DKPVTGPRNKTENGLTPKKKIQVNSKPSIQPKPLLLPAAPKTQTNSSVPAKTIIIQTVPTLMPLAKQQPIISLQPAPTKGQTVLLSQPTVVQLQAPGVLPSAQPVLAVAGGVTQLPNHVVNVVPAPSANSPVNGKLSVTKPVLQSTMRNVGSDIAVLRRQQRMIKNRESACQSRKKKKEYMLGLEARLKAALSENEQLKKENGTLKRQLDEVVSENQRLKVPS
[2]
  action on endogenous p50ATF6 in the nucleus: act dominant-negatively

B7: ATF6(151-366): ATF6 amino acids 151st to 366th, transcription-activating domain deletion mutant (protein, UniProt P18850 151-366, looked up, fragment)
chain: DKPVTGPRNKTENGLTPKKKIQVNSKPSIQPKPLLLPAAPKTQTNSSVPAKTIIIQTVPTLMPLAKQQPIISLQPAPTKGQTVLLSQPTVVQLQAPGVLPSAQPVLAVAGGVTQLPNHVVNVVPAPSANSPVNGKLSVTKPVLQSTMRNVGSDIAVLRRQQRMIKNRESACQSRKKKKEYMLGLEARLKAALSENEQLKKENGTLKRQLDEVVSEN
[2]
  action on endogenous p50ATF6 in the nucleus: act dominant-negatively

B8: ATF6(151-330): ATF6 amino acids 151st to 330th, transcription-activating domain deletion mutant (protein, UniProt P18850 151-330, looked up, fragment)
chain: DKPVTGPRNKTENGLTPKKKIQVNSKPSIQPKPLLLPAAPKTQTNSSVPAKTIIIQTVPTLMPLAKQQPIISLQPAPTKGQTVLLSQPTVVQLQAPGVLPSAQPVLAVAGGVTQLPNHVVNVVPAPSANSPVNGKLSVTKPVLQSTMRNVGSDIAVLRRQQRMIKNRESACQSRKKKKEY
[2]
  action on endogenous p50ATF6 in the nucleus: act dominant-negatively

From US6635751B1, “Isolated nucleic acids encoding activated and suppressive forms of ATF6” (HSP Research Institute, Inc., priority 1998, dated 2003)
